Measured values from the nanobody polyreactivity screen of Harvey et al. (2022).

Test: yeast display, Sf9 membrane polyspecificity reagent, FACS + sequencing; frameworks hold sequencing errors
How it was run: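 Nanobodies came from a synthetic yeast display library in Saccharomyces cerevisiae BJ5465, induced with galactose for 36–48 hours and stained for 1 hour at 4 °C with 10% biotinylated, detergent-solubilized Sf9 membrane reagent. Cells were enriched on streptavidin microbeads and then FACS-sorted, with low and high (top ~1%) gates set on anti-HA fluorescence for expression and streptavidin fluorescence for reagent binding. Each polyreactivity label reflects the gate a clone came from. Genes were amplified by colony PCR, sequenced by MiSeq 2 × 250 and filtered by CDR length.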

Sequence	polyreactivity (PSR sort gate)
QVQLVESGGGLVQAGGSLRLSCAASGFIFSPYAMGGYRHEPGKEREFVAAITSRVGSTYYADSVKGRFTISRDNAKNTVYLQMNSLKPEDTAVYYCAATTDGLVGRPRYDYWGQGTQVTVSS	low polyreactivity
QVQLVESGGGLVQAGGSLRLSCAASGFIFSQYARGWYRQAPGKERELVAAISYSGGSTYYADSVKGRFTISRDNAKNTVYLQMNSLKPEDTAVYYCAVSGRSYYRSDYWGQGTQVTVSS	high polyreactivity
QVQLVESGGGLVQAGGSLRLSCAASGFIFSRNAMGWYRQAPGKERELVASITRRGGSKYYADSVKGRFTISRDYAKNTVYLQMNSLKPEDTAVYYCAADGYVRPPEMDYWGQGTQVTVSS	high polyreactivity
QVQLVESGGGLVQAGGSLRLSCAASGFIFSRNAMGWYRQAPGKVRELGAAISRVGSTYYADSVKGRFTISRDNAKNTVYLQMYSLKREDTAVYYCARAWGNGGKSIFDYWGQGTQVTVSS	high polyreactivity
QVQLVESGGGLVQAGGSLRLSCAASGFIFSRYAMGWSRQAPGKERELVAAIRFSGSITYYADSVKGRFTISRDNAKNTVYLQMNSLKPEDTAVYYCAAYRRYYGWYEYWGQGTQVTVSS	high polyreactivity
QVQLVESGGGLVQAGGSLRLSCAASGFIFSRYAMGWYRQAPGKERELVAAISGRGTSTYYADSVKGRFTISRDNAKNTVYLQMNSLKPEDTAVYYCNTYSQPKWGTSDYDYWGQGTQVTVSS	high polyreactivity
QVQLVESGGGLVQAGGSLRLSCAASGFIFSRYVMGWYRQAPGKEMELVAVISYRGGSTYYADSVKGRFTISRDNAKNTVYLQMNSLKPEDTAVYYCNADTIPDGEDRYDYWCQGTQVTVSS	low polyreactivity
QVQLVESGGGLVQAGGSLRLSCAASGFIFSSNAMGWYRPAPGKERELVARITSSDGSTYYADSVKGRFTISRDNAKNTVYLQMNSLKPEDTAVYYCAKGRDATHYEYYLYSMDYWGQGTQVTVSS	low polyreactivity
QVQLVESGGGLVQAGGSLRLSCAASGFIFSSYAMGWYRQAPGKERELVAAISRGGSTYYADSVKGRFTISRDNAKNTVYLQMNSLKPEDTAVYYCNARRYRHDGYWGQGTQVTVSS	high polyreactivity
QVQLVESGGGLVQAGGSLRLSCAASGFIFSSYAMGWYRQAPGKERELVAAISRSGGRTNYADSVKGRFTISRDNAKNTVYLQMNSLKPEDTAVYYCNADRKYWSLWGPAYDYWGHGTQVTVSS	high polyreactivity
QVQLVESGGGLVQAGGSLRLSCAASGFIFSTNAKGWYSQAPGKERELVATIRSGVSTYYADSVKGRFTISRDNAKNTVYLQMNSLKPEDTAVYYCNVDDTSRTTSGGRFGQVESDYWGQGTQVTVSS	low polyreactivity
QVQLVESGGGLVQAGGSLRLSCAASGFIFSTYAMGWYRQAPGKERELVAAITTSGSSTYYADSVKGRFTISRDNAKNTVYLQMNSLKPEDTAVYYCNAKYGYSAATDRGNYWGQGTQVTVSS	high polyreactivity
QVQLVESGGGLVQAGGSLRLSCAASGFIFSVNTMGWYRQAPGKERELVAAISGSGGSTYYADSVKGRFTISRDNAKITVYFQMNSLKPDDTAVYYCAARYTVTYDYWGQCTQVTVSS	high polyreactivity
QVQLVESGGGLVQAGGSLRLSCAASGFIFSVNTMGWYRQAPGKERELVAAISGSGGSTYYADSVKGRFTISRDNAKNTVYLQMNSLKPEDTAVYYCAAGVAWRFYSWGQGTQVTVSS	high polyreactivity
QVQLVESGGGLVQAGGSLRLSCAASGFIFSVYTMGWYRQAPGKERELVASITGSGGDTYYADSVKGRFTISRDNAKNTVYLQMNSLKPEDTAVYYCNVDAGFHDSYHAWNFRYDYWGQGTQVTVSS	low polyreactivity
QVQLVESGGGLVQAGGSLRLSCAASGFIFSWNDLGWYRQATGKERELVAAITSGTGSTYYADSVKGRFTISRDNAKNTVYLQMNSLKPEDTAVYYCAAGTNYGKLRIRFDYWGQGTQVTVSS	low polyreactivity
QVQLVESGGGLVQAGGSLRLSCAASGFIFSWYVMGWYRQAPGKERELVAAISQSGGDTYYADSVKGRFTFSRDNAKNTVYLQMNILKPEDTAVYYCAVGRVGRFYYWGQGTQVTVSS	high polyreactivity
QVQLVESGGGLVQAGGSLRLSCAASGFIFSYNAMGWYRQAPGKERELVAAISSIGSGTYYADSVKGRFTISRDNAKNTVYLQMNSLKPEDTAVYYCAKYLRPRIGSRYYYWGQGTQVTVSS	high polyreactivity
QVQLVESGGGLVQAGGSLRLSCAASGFIFSYNAMGWYRQAPGKERELVASISRRSGITYYADSVKGRFTISRDNAKNTVYLQMNSLKPEDTAVYYCAVTQNSKSTKIRPDQGDYWGLGTQVTVSS	high polyreactivity
QVQLVESGGGLVQAGGSLRLSCAASGFIFSYYAMGWYRQAPGKERELVAAISRNGGRTYYADSVKGRFTISRDNAKNTVYLQMNSLIPEDTAVYYCAATTYRTSSYIRYGSPKHDDYWGQGTHVTVSS	high polyreactivity
QVQLVESGGGLVQAGGSLRLSCAASGFIFSYYAMGWYRQAPGKERELVAAITWDGGSTYYADSVKGRFTISRDNAKNTVYLQMNSLKPEDTAVYYCNAYYYYRRPLEGGYWGQGTQVTVSS	low polyreactivity
QVQLVESGGGLVQAGGSLRLSCAASGFIFSYYAMGWYRQAPGKERELVAAITWSGGGTYYADSVKGRFTISRDNAKNTVYLQMNSLKPEDTAVYYCAAERVYPDGEYWGQGTQVTVSS	high polyreactivity

Sequence	polyreactivity (PSR sort gate)
QVQLVESGGGLVQAGGSLRLSCAASGFIFSYYAMGWYRQAPGKERELVADITSGGSTNYADSVKGRFTISRDNAKNTVYLQMNSLKPEDTAVYYCAATGLPGYYAYDYWGQGTQVTVTS	low polyreactivity
QVQLVESGGGLVQAGGSLRLSCAASGFIFSYYAMGWYRQAPGKERELVATINFSGGRTYYADSVKGRFTISRDNEKNTVYLQMNSLKPEDTAVYYCAASFYSYTSRYPDYYYWGQGTQVTVSS	high polyreactivity
QVQLVESGGGLVQAGGSLRLSCAASGFIFSYYTMGWYRQAPGKERELVAAISRNGGSTYYADSVKGRFTISRDNAKNTVYLQMNSLKPEDTAVYYCAKRVFNYQRYDYWGQGTQVSVSS	high polyreactivity
QVQLVESGGGLVQAGGSLRLSCAASGFIFSYYVMGWYREAPGKERELVAAISWNGGSTFYADSVKGRFTISRDNAKNSVYLQMNSLKPEDTAVYYCAAYPRFYGGKYGEYGYWGQGTQVTVSS	high polyreactivity
QVQLVESGGGLVQAGGSLRLSCAASGFIFSYYVMGWYRQAPGKERELVAAINESGGRTYYADSVKGRFTISRDNAKNTVYLQMNSLKQEDTAVYYCAASVLNKIQGYRDYYWGQGTKVTVSS	low polyreactivity
QVQLVESGGGLVQAGGSLRLSCAASGFIFTANAMGWYRQAPGKERELVAAINWSDGGTYYADSVKGRFTISRDNAKNTVYLQMNSLKPEDTAVYYCNAQWAWTYYYWGQGTQVTVSS	low polyreactivity
QVQLVESGGGLVQAGGSLRLSCAASGFIFTDNAMGWYRQAPGKERELVAAISKNGGSTYYADSVKGRFTISRDNAKNTVYLQMNSLKQEDTAVYYCNTRRKNFVKSSQVEYWGQGTQVTVSS	high polyreactivity
QVQLVESGGGLVQAGGSLRLSCAASGFIFTDYAMGWYRQATGQEREFVAAIDWSGGNTYYADSVKGRFTISRDNAKNTVYLQLNSLKPEDTAVFFCSASGSAREYDYWGQGTQVTVSS	low polyreactivity
QVQLVESGGGLVQAGGSLRLSCAASGFIFTGYAMGWYRQAPGKERELVAAISSSGGRTYYADSVKGRFTISRDNAKNTVYLQMNSLKPEDTAVYYCAAYYITFIGRGYGYWGQGTQVTVSS	high polyreactivity
QVQLVESGGGLVQAGGSLRLSCAASGFIFTIYALGWYRQAPGKERELVAAIDSSGTTYYADSVKGRFTISRDNAKNTVYLQMNSLKPEDTAVYYCNTDIYVQYGWGQGTQVTVSS	low polyreactivity
QVQLVESGGGLVQAGGSLRLSCAASGFIFTIYAMGWYRQAPGKERELVAAITWNGGRTYYADSVKGRFTISRDNAKNTVDLQMNSLKPEDTAVYYCAARYGRAYDYWGQGSQVTVSS	high polyreactivity
QVQLVESGGGLVQAGGSLRLSCAASGFIFTKYSMGWYRQAPGKERELVAAIRGSGGSTYYADSVKGRFTISRDIAKNSVYLQMNSLKPEDTAVYYCAAERSLGYDYWGQGTQVTVSS	high polyreactivity
QVQLVESGGGLVQAGGSLRLSCAASGFIFTPNAMGWYRQAPGKERELVATISWRGTGTYYADSVKGRFTISRDTAKNTVYLQMNSLNPVDTAVYYCAVRFYSFHYYRIYTYSVTYDYWGQGTQVTVSS	high polyreactivity
QVQLVESGGGLVQAGGSLRLSCAASGFIFTPYAMGWYRQAPGKERELVAAITWRGARTYYADSVKGRFTISRDNAKNTVYLQMNSLKPEDTAVYYCATTFTGYNKEFGYWGQGTQVTVSS	high polyreactivity
QVQLVESGGGLVQAGGSLRLSCAASGFIFTQNAMGWYRQAPGKERELVAVIRWNGGSTYYADSVKGRITISRDNAKNTVYLQMNSLKREDTAVYYCAAEFLWIVDYWGQGTQVTVSS	low polyreactivity
QVQLVESGGGLVQAGGSLRLSCAASGFIFTQNGMGWYRQAPGKERELVAAISWSAGGTYYADSVKGRFTISRDNAKNTVYLQMNSLKPEDTAVYYCNARVYNVFREFNSWGQGTQVTVSS	low polyreactivity
QVQLVESGGGLVQAGGSLRLSCAASGFIFTQYAMGWYRQSPGKERELVAGITSSGNTYYADSVKGRFTISRDNAKNTVYLQMNSLKPEDTAVYYCAARSYVRRFDGGYWGQGTQVTVSS	high polyreactivity
QVQLVESGGGLVQAGGSLRLSCAASGFIFTRNVMGWYRQAPGKEMELVASISKSSGSTYYADSVKGRFTISRDNAKNTVYLQMNSLNPEDTAVYYCATYAKQLSPYYYWGQGIQVTVSS	high polyreactivity
QVQLVESGGGLVQAGGSLRLSCAASGFIFTRYAMGWYRQAPGKEREFVARIDSSGGSTYYADSVKGRFTISRDNAKNTVYLQMNSLKPEDTAVYYCAAVGYRFGSYYWGQGTKVTVSS	high polyreactivity
QVQLVESGGGLVQAGGSLRLSCAASGFIFTRYAMGWYRQAPGKERELVAVITSSGGTYYADSVKGRFTISRDNAKNSVYLQMNSLKPEDTAVYYCNADFYRVAYLRRYSHFDYWGQGTQVTVSS	high polyreactivity
QVQLVESGGGLVQAGGSLRLSCAASGFIFTSYAMAWYRQAPGKERELVAAIDYSGGSTYYADSVKGRFTISRDNAKNTVYLQINSLKPEDTAVYYCSAGEGLWPGSQTYDYWGQATQVTVSS	low polyreactivity
